Reference: paper PMC7615550, “Structural mechanism of outer kinetochore Dam1:Ndc80 complex assembly on microtubules” (Science (New York, N.Y.), 2023)
Values belong to the molecule of their own block, whether it stands above or below them.

B1: Spc34 subunit of the Dam1 complex (natural protein, S. cerevisiae)
chain: MGESLDRCIDDINRAVDSMSTLYFKPPGIFHNAILQGASNKASIRKDITRLIKDCNHDEAYLLFKVNPEKQSVSRRDGKEGVFDYVIKRDTDMKRNRRLGRPGEKPIIHVPKEVYLNKDRLDLNNKRRRTATTSGGGLNGFIFDTDLIGSSVISNSSSGTFKALSAVFKDDPQIQRLLYALENGSVLMEEESNNQRRKTIFVEDFPTDLILKVMAEVTDLWPLTEFKQDYDQLYHNYEQLSSKLRFIKKEVLLQDDRLKTMSQYHPSSSHDVAKIIRKEKDEIRRLEMEIANLQE
notes: Spc34, S. cerevisiae, as a subunit of the reconstituted Dam1 complex; Stood in the assay inside the whole Dam1c; source: purified as part of Dam1c
B6: Dam1 subunit of the Dam1 complex (natural protein, S. cerevisiae)
chain: MSEDKAKLGTTRSATEYRLSIGSAPTSRRSSMGESSSLMKFADQEGLTSSVGEYNENTIQQLLLPKIRELSDSIITLDSNFTRLNFIHESLADLNESLGSLLYGIMSNSWCVEFSQAPHDIQDDLIAIKQLKSLEDEKNNLVMELSNMERGIKRKKDEQGENDLAKASQNKQFNQPLFPSSQVRKYRSYDNRDKRKPSKIGNNLQVENEEDYEDDTSSEASFVLNPTNIGMSKSSQGHVTKTTRLNNNTNSKLRRKSILHTIRNSIASGADLPIENDNVVNLGDLHPNNRISLGSGAARVVNGPVTKNRNSMFSGRAERKPTESRHSVAKKTEKKINTRPPFR
notes: Dam1, S. cerevisiae, as a subunit of the reconstituted Dam1 complex; Stood in the assay inside the whole Dam1c; also called Dam1^Staple (residues 1-26); Dam1^C-ter; source: purified as part of Dam1c

Legend:
[1] = molecular target: Ndc80 complex (heterotetramer of Ndc80, Nuf2, Spc24 and Spc25, S. cerevisiae), wild type (S. cerevisiae) (UniProt P40460)
[2] = molecular target: microtubules (α/β-tubulin) (UniProt P02554); experiment: optical trap force-rupture assay; rupture of outer kinetochore - microtubule attachments; each event is the maximum trap force before rupturing; medians; Ndc80c alone
[3] = molecular target: Dam1 complex (ten-subunit, S. cerevisiae), wild type (S. cerevisiae) (UniProt P53267); experiment: cryo-EM structure; outer kinetochore Dam1c:Ndc80c:microtubule complexes assembled on cryo-EM grids by step-wise addition of taxol-stabilized microtubules, Ndc80c, and Dam1c
[4] = molecular target: Dam1 complex (ten-subunit, S. cerevisiae), wild type, P53267;Q12248;P35734;P69851;P36131;Q03954; experiment: optical trap force-rupture assay; details: Ndc80c + Dam1c on microtubules; N=154 (parent N=150); parent: 10.4
[5] = molecular target: microtubules (α/β-tubulin) (UniProt P02554); experiment: optical trap force-rupture assay; details: Ndc80c alone (no Dam1c) on microtubules; N=81 (parent N=119); parent: 5.4
[6] = molecular target: T1, Ndc80 complex (heterotetramer of Ndc80, Nuf2, Spc24 and Spc25, S. cerevisiae), wild type (S. cerevisiae, UniProt P40460 1-691; P33895 1-451; Q04477 1-213; P40014 1-221); experiment: cryo-EM structure; outer kinetochore Dam1c:Ndc80c:microtubule complexes assembled on cryo-EM grids by step-wise addition of taxol-stabilized microtubules, Ndc80c, and Dam1c; details: both partners purified
T1 construct: Ndc80 subunit of the S. cerevisiae Ndc80 complex; Nuf2 subunit of the S. cerevisiae Ndc80 complex; Spc24 subunit of the S. cerevisiae Ndc80 complex (no cryo-EM density visible); Spc25 subunit of the S. cerevisiae Ndc80 complex (no cryo-EM density visible); also called Ndc80c^CH; Ndc80^CC:Nuf2^CC; source: purified; copies: + + +

[7] = molecular target: B6; experiment: as above; details: both partners purified
[8] = molecular target: T2, Ndc80 subunit of the Ndc80 complex (S. cerevisiae, UniProt P40460 1-691); experiment: as above; details: both partners purified
T2 construct: Ndc80, S. cerevisiae, as a subunit of the reconstituted Ndc80 complex; Stood in the assay inside the whole Ndc80c; also called Ndc80^CH; Ndc80^CC; source: purified as part of Ndc80c

[9] = molecular target: B1; experiment: as above; details: both partners purified

T1 sequence (P40460 whole entry, chain 1 of 4): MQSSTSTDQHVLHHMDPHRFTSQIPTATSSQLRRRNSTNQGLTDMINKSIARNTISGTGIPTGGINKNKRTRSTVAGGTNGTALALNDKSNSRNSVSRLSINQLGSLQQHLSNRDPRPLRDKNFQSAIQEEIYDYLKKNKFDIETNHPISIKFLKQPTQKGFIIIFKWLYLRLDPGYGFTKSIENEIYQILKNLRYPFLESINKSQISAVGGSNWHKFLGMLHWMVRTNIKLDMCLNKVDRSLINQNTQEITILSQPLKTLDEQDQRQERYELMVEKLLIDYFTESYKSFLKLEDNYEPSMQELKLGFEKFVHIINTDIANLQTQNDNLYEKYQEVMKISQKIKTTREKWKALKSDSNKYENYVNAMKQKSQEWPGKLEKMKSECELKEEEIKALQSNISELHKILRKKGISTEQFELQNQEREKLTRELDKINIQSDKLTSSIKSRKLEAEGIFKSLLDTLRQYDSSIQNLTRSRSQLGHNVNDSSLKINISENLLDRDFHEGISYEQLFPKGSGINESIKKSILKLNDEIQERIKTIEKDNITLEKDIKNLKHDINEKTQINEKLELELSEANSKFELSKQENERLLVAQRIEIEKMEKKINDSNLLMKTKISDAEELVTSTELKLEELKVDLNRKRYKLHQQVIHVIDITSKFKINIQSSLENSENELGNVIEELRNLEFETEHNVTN
T1 sequence (P33895 whole entry, chain 2 of 4): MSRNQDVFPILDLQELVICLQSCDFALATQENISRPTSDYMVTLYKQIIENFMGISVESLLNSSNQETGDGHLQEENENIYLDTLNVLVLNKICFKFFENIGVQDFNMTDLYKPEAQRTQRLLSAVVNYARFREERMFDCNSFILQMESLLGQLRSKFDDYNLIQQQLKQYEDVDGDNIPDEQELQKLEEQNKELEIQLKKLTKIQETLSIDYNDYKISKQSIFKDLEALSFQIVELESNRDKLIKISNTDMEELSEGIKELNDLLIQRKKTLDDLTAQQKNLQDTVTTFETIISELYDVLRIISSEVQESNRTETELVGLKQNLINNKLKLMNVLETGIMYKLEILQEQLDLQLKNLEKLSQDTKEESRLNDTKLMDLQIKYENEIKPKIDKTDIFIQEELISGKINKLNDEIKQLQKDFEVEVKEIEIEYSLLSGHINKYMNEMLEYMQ
T1 sequence (Q04477 whole entry, chain 3 of 4): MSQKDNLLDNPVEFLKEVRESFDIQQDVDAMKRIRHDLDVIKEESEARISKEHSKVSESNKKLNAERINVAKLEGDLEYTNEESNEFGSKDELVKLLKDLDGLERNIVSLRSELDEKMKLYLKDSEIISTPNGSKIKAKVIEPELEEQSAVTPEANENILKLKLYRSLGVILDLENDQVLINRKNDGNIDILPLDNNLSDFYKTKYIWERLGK
T1 sequence (P40014 whole entry, chain 4 of 4): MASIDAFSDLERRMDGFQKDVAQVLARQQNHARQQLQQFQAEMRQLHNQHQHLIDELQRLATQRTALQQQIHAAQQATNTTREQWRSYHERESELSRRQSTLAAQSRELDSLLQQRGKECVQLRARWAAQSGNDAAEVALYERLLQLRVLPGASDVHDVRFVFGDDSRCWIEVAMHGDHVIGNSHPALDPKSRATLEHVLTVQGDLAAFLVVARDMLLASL
Ndc80 complex (heterotetramer of Ndc80, Nuf2, Spc24 and Spc25, S. cerevisiae), wild type (S. cerevisiae), sequence (P40460 whole entry, chain 1 of 4): as the sequence (P40460 whole entry, chain 1 of 4) above
Ndc80 complex (heterotetramer of Ndc80, Nuf2, Spc24 and Spc25, S. cerevisiae), wild type (S. cerevisiae), sequence (P33895 whole entry, chain 2 of 4, further chain): as the sequence (P33895 whole entry, chain 2 of 4) above
Ndc80 complex (heterotetramer of Ndc80, Nuf2, Spc24 and Spc25, S. cerevisiae), wild type (S. cerevisiae), sequence (Q04477 whole entry, chain 3 of 4, further chain): as the sequence (Q04477 whole entry, chain 3 of 4) above
Ndc80 complex (heterotetramer of Ndc80, Nuf2, Spc24 and Spc25, S. cerevisiae), wild type (S. cerevisiae), sequence (P40014 whole entry, chain 4 of 4, further chain): as the sequence (P40014 whole entry, chain 4 of 4) above
T2 sequence (P40460 whole entry, one chain of several): as the sequence (P40460 whole entry, chain 1 of 4) above

Molecule: Ndc80 complex (heterotetramer of Ndc80, Nuf2, Spc24 and Spc25, S. cerevisiae), wild type (from UniProt P40460;P33895;Q04477;P40014) E568R; V590W; L594E; E597R
other: median rupture force [4]: 8.9 pN
other: median rupture force [5]: 4.5 pN

Molecule: B1
binding result [6]: binds

B2: Dad1 subunit of the Dam1 complex (natural protein, S. cerevisiae)
chain: MMASTSNDEEKLISTTDKYFIEQRNIVLQEINETMNSILNGLNGLNISLESSIAVGREFQSVSDLWKTLYDGLESLSDEAPIDEQPTLSQSKTK
notes: Dad1, S. cerevisiae, as a subunit of the reconstituted Dam1 complex; Stood in the assay inside the whole Dam1c; also called Dad1^A; source: purified as part of Dam1c
binding result [7]: binds

B4: Spc19 subunit of the Dam1 complex (natural protein, S. cerevisiae)
chain: MTDALEQSVLALEGTVSVLKDSVESLKCANEPSTNLASTMLQTKRVFRLVPEYDVERSKLDLIEEVEPLVRTLGDKLRKSMGRMQRELDTLQQTYELNDLRLKKNISMDDDDALNSPDMGQEYEGRDADDVVMMASSTNEELEELKKLKEKKKQLENKLEILKQK
notes: Spc19, S. cerevisiae, as a subunit of the reconstituted Dam1 complex; Stood in the assay inside the whole Dam1c; source: purified as part of Dam1c
binding result [8]: binds
binding result [9]: binds

B5: Ask1 subunit of the Dam1 complex (natural protein, S. cerevisiae)
chain: MDSASKEETLEKLDQEITVNLQKIDSNLSFCFHKITQDIIPHVATYSEICERIMDSTEWLGTMFQETGLVNLQANAAAPVGNAPVKSLVSNNVGIFPTSAEEASRQSQTDNGPNEADSAVHVNRDVHSMFNNDSIDDFHTANITSTGQILKLPDSSDEDTGSEAVPSREQTDLTGEGHGGADDEQDESTIQRQSRKRKISLLLQQQYGSSSSMVPSPIVPNKMRKQLAHEEHINNDGDNDDENSNNIESSPLKQGHHHPKGQADDNNEGPDEEESTKEVPKPGTIIHFSTNR
notes: Ask1, S. cerevisiae, as a subunit of the reconstituted Dam1 complex; Stood in the assay inside the whole Dam1c; also called Ask1^B; source: purified as part of Dam1c
binding result [7]: binds

Molecule: B6
binding result [6]: binds

Further lines, results first:

median rupture force of Ndc80c - microtubule attachments in the presence of the Dam1 C-ter mutant Dam1c (optical trap force-rupture assay) [1]: 5.5 pN
Molecule: Dam1 complex with the Dam1 C-terminal mutant (I258/L259/I262 mutated) (from UniProt P53267 1-343; Q12248 1-94; P35734 1-292; P69851 1-72; P36131 1-295; Q03954 1-165)

median rupture force [2]: 5.4 pN
Molecule: Ndc80 complex (heterotetramer of Ndc80, Nuf2, Spc24 and Spc25, S. cerevisiae), wild type (from UniProt P40460 1-691; P33895 1-451; Q04477 1-213; P40014 1-221)

median rupture force of Ndc80c - microtubule attachments in the presence of Dam1c (optical trap force-rupture assay) [1]: 10.4 pN
stoichiometry N [3]: 16
Molecule: Dam1 complex (ten-subunit, S. cerevisiae), wild type (from UniProt P53267 1-343; Q12248 1-94; P35734 1-292; P69851 1-72; P36131 1-295; Q03954 1-165)

binding result [7]: binds
B3: Dad4 subunit of the Dam1 complex (natural protein, S. cerevisiae)
chain: MENPHEQVQANILSRIIGNVKRLNESVAILNQELVTINNRNKNLEIMGAICDNYHSSVQFNLEATNNKKPPL
notes: Dad4, S. cerevisiae, as a subunit of the reconstituted Dam1 complex; Stood in the assay inside the whole Dam1c; also called Dad4^B; source: purified as part of Dam1c
